# From patent US20260137799A1, “ANTI-MUC1* ANTIBODY DRUG COMPLEXES AND USES THEREOF” (Minerva Biotechnologies Corporation, priority 2023, published 2026)
# How the values were obtained:
# [1] = target: PSMGFR N-30 (SEQ ID NO: 157) (Homo sapiens, UniProt P15941); test: Epitope mapping, binding to PSMGFR N-30 peptide
# Text: FIG. 2B quantifies binding of the 3C2B1 anti-MUC1* antibody to the peptides of FIG. 2A.
# (§1) The 3C2B1 epitope was mapped more precisely with additional PSMGFR peptide variants (FIGS. 2A, 2B).
# [2] = tested on: HPAFII pancreatic cancer cells; test: Antibody internalization (pHrodo Deep Red), HPAFII; assay type: cell-based, human
# Protocol: (§2) Internalization of antibody 3C2B1 into HPAFII pancreatic cancer cells (FIGS. 5A-5G) and OE19 esophageal cancer cells (FIGS. 5H-5N) was detectable after 8 hours and nearly complete at 16 hours. The results are quantified in FIG. 5O.
# (§3) Antibodies C2 and 3C2B1 were coupled to a pH sensitive fluorophore using the pHrodo Deep Red TFP Ester kit (Thermo cat #P35356), according to manufacturer instructions. Cancer cells were seeded at ˜50,000 cells/well onto μ-Slide 8-well tissue culture-treated, chambered coverslip wells (Ibidi 80806) in their recommended media with 10% FBS. Cells were cultured for 48 hours. Slides were transferred into microscope chamber (37° C.—5% CO2) and equilibrated for ˜30 minutes. The pHrodo Deep Red coupled antibody was then diluted to a concentration of 200 to 300 μg/mL into pre-warmed media supplemented with 10% FBS. Media was removed from the chamber slides and the diluted antibodies were separately added. […]
# (§4) Internalization of the fluorescently labeled antibodies was quantified as follows. […] The integrated pixel density (mean gray-scale value×area) was then measured by the ImageJ software. Positively-stained cells were manually counted and the integrated pixel density was divided by the number of positive cells to yield “Pixel Intensity per positive cell”.
# [3] = tested on: T47D breast cancer cells (T47D-wt); test: Antibody internalization (pHrodo Deep Red), T47D-wt; assay type: cell-based, human
# Protocol: (§5) Antibodies C2 and 3C2B1 were tested for their ability to be internalized by T47D breast cancer cells (T47D-wt) or T47D cells that were engineered to express high levels of a recombinant MUC1* polypeptide with a 45 amino acid extracellular domain (T47D-MUC1*45), as described in WO2010042562 and WO2010042891. […] C2 internalization was detected within 2.5 hours in T47D-wt cells (FIGS. 3A-3F) and was increased by MUC1*45 expression (FIGS. 3G-3L). […] Unexpectedly, MUC1*45 expression inhibited 3C2B1 internalization (FIG. 3S-3X).
# as §3, with “minutes.” for “minutes. The pHrodo Deep Red coupled antibody was then diluted to a concentration of 200 to 300 μg/mL into pre-warmed media supplemented with 10% FBS. Media was removed from the chamber slides and the diluted antibodies were separately added.”
# as §4
# [4] = target: PSMGFR peptide (SEQ ID NO: 1) (Homo sapiens, UniProt P15941); test: ELISA binding to PSMGFR peptide
# Text: MUC1* is a cancer-specific antigen produced by proteolytic cleavage of the extracellular domain of MUC1. The extracellular domain of MUC1* comprises about 45 amino acids. Monoclonal antibodies generated against the PSMGFR peptide (SEQ ID NO: 1) bind to MUC1*, as described in WO 2020/146902.
# Cancer selective anti-MUC1* antibodies bind to a membrane proximal conformational epitope within the MUC1* extracellular domain, as described in WO 2020/146902.
# as §1
# [5] = tested on: T47D-MUC1*45 cells; test: Antibody internalization (pHrodo Deep Red), T47D-MUC1*45; assay type: cell-based, human
# Protocol: as §5
# as §3, with “minutes.” for “minutes. The pHrodo Deep Red coupled antibody was then diluted to a concentration of 200 to 300 μg/mL into pre-warmed media supplemented with 10% FBS. Media was removed from the chamber slides and the diluted antibodies were separately added.”
# as §4
# [6] = tested on: OE19 esophageal cancer cells; test: Antibody internalization (pHrodo Deep Red), OE19; assay type: cell-based
# Protocol: as §2, §3, §4
# [7] = tested on: pancreatic cancer specimens; test: IHC of tissue microarray, pancreatic cancer; assay type: binding, human; conditions: 40 specimens, antibodies at 15 μg/mL
# Text: Tissue microarrays are typically made up of hundreds of tissue specimens, where each specimen in the array comes from a different patient. The breast cancer array contained patient specimens of all types of invasive breast cancers, including less common forms such as carcinomas with medullary features and papillary carcinomas. The lung cancer array contained specimens from patients diagnosed with squamous cell carcinoma, adenocarcinoma, mucinous adenocarcinoma, adenosquamous carcinoma and large cell carcinoma. The pancreatic cancer tissue microarray contained specimens from patients with ductal adenocarcinomas.
# Similar to the lung cancer results, antibody 3C2B1 stained pancreatic cancers better than C2. Of the 40 specimens from 40 different pancreatic cancer patients, 27 were positively stained by C2, 3C2B1, or both. Eighteen (18) stained more robustly with 3C2B1 than C2 or were not stained by C2 at all. One specimen stained slightly better with C2 and 8 specimens stained essentially the same with either antibody.
# Cancerous tissue arrays were purchased from Tissue Array (Derwood, MD). After deparaffinization, antigen retrieval (pH 6.0) was performed for 10 min. The sections incubated in blocking buffer (10% normal goat serum and 5% BSA in TBS) at room temperature for 1 hr before incubating in either C2 or 3C2B1 in 1% BSA-TBS overnight at 4° C. […]
# [8] = Toxicity in animal studies; assay type: in vivo; conditions: each antibody incorporated into several ADC formats
# Text: Exatecans and deruxtecans can also have bystander effects. […] It is not completely clear whether these side effects are due to the payload or to the HER2 target, which is also expressed on normal lung and normal heart. The first two patients treated with a HER2 targeting CAR T cell product died shortly after the infusion. […] More recently, yet another patient died after being treated with a different HER2-targeting ADC. […] 32CB1, C2 and 20A10 unexpectedly have an extremely high degree of cancer specificity and elicited no toxicities in animal studies, where each antibody was incorporated into several ADC formats.
# Chain of PSMGFR peptide (SEQ ID NO: 1) (P15941 1110-1154): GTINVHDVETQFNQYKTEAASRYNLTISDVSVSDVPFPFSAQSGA
molecule,measurement,setting,value
"3C2B1: anti-MUC1* monoclonal antibody that bound to the PSMGFR peptide (antibody, V domains shown) VH: EVMLVESGGGLVKPGGSLKLSCAASGITFSTYTMSWVRQTPEKRLEWVATISTGGDKTYYSDSVKGRFTISRDNAKNNLYLQMSSLRSEDTALYYCARGTTAMYYYAMDYWGQGTSVTVSS VL: DIVLTQSPASLAVSLGQRATISCRASKSISTSDYNYIHWYQQKPGQPPKLLIYLASNLESGVPARFSGSGSGTDFTLNIHPVEEEDAATYYCQHSRELPLTFGAGTKLELK",binding to N-30 variant PSMGFR peptide,[1],bound
same,time after which internalization was detectable,[2],8 h
same,time at which internalization was nearly complete,[2],16 h
same,internalization rate compared to C2,[3],internalized more slowly
same,binding to the PSMGFR 45mer peptide,[4],bind
same,effect of MUC1*45 expression on internalization,[5]; T47D-MUC1*45 vs T47D-wt,inhibited
same,fraction of cells that internalized detectable antibody,"[5]; T47D-MUC1* cells, after 14 hours",Less than half
same,time after which internalization was detectable,[6],8 h
same,time at which internalization was nearly complete,[6],16 h
same,3C2B1 > C2 (number of specimens stained better with 3C2B1),[7],18
same,toxicities in animal studies,[8],no toxicities
